Test results: paper doi:10.1101/2024.11.06.622243, “The MRAP2 accessory protein directly interacts with melanocortin-3 receptor to enhance signaling” (bioRxiv, 2024)
Each block holds one binder with its values, some of them ahead of it.

Legend:
[1] = target: T1, HA-Halo-MC3R (melanocortin-3 receptor) (human, UniProt P41968 1-323, CA-Sulfo646 dye on the Halo tag); test: single-molecule pull-down (SiMPull); two-colour SiMPull: HA-Halo-tagged bait (CA-Sulfo646) and FLAG-CLIP-tagged prey (BC-DY547) co-expressed in HEK293 cells (300 ng Halo and 600 ng CLIP plasmid), labelled before lysis in 0.5% LMNG/0.05% CHS, bait immobilised by biotinylated anti-HA antibody, co-localisation and photobleaching steps by TIRF; conditions: partners not purified
T1 construct: human melanocortin-3 receptor (MC3R); pRK5 construct with an N-terminal signal peptide from rat mGluR2 before the HA and Halo tags; also called ss-HA-Halo-MC3R; source: HEK293, transiently transfected, in lysate (LMNG-CHS); not shown: HA, N-terminal, kept; Halo, N-terminal, kept

[2] = target: the molecule itself; test: single-molecule pull-down (SiMPull); one-colour SiMPull with photobleaching step analysis: HA-Halo-tagged protein labelled on HEK293 cells with membrane-impermeable CA-Sulfo646, lysed in 0.5% LMNG/0.05% CHS, immobilised by biotinylated anti-HA antibody on a PEG-passivated slide, TIRF imaging

T1 sequence (P41968 whole entry): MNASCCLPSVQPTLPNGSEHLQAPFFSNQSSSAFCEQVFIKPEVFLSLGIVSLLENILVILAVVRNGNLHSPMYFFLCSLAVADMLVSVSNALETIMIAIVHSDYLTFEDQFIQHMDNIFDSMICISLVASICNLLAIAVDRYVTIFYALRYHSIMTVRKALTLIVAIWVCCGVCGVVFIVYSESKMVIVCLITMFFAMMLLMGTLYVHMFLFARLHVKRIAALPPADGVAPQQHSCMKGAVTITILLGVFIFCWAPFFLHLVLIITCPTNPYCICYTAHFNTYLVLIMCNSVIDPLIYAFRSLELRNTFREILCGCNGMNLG

stoichiometry N [1]: 1 MRAP2 per MC3R
B1: FLAG-CLIP-MRAP2 (melanocortin-2 receptor accessory protein-2) (natural protein, human, UniProt Q96G30 1-205, looked up)
chain: MSAQRLISNRTSQQSASNSDYTWEYEYYEIGPVSFEGLKAHKYSIVIGFWVGLAVFVIFMFFVLTLLTKTGAPHQDNAESSEKRFRMNSFVSDFGRPLEPDKVFSRQGNEESRSLFHCYINEVERLDRAKACHQTTALDSDVQLQEAIRSSGQPEEELNRLMKFDIPNFVNTDQNYFGEDDLLISEPPIVLETKPLSQTSHKDLD
modifications: BC-DY547 dye on the CLIP tag
notes: human melanocortin-2 receptor accessory protein 2 (MRAP2); pRK5 construct with an N-terminal signal peptide from rat mGluR2 before the tags; also called ss-FLAG-CLIP-MRAP2; source: HEK293, transiently transfected, in lysate (LMNG-CHS); not shown: FLAG, N-terminal, kept; CLIP, N-terminal, kept

B2: mGluR2 (receptor, UniProt P31421 19-872, looked up)
chain: EGPAKKVLTLEGDLVLGGLFPVHQKGGPAEECGPVNEHRGIQRLEAMLFALDRINRDPHLLPGVRLGAHILDSCSKDTHALEQALDFVRASLSRGADGSRHICPDGSYATHSDAPTAVTGVIGGSYSDVSIQVANLLRLFQIPQISYASTSAKLSDKSRYDYFARTVPPDFFQAKAMAEILRFFNWTYVSTVASEGDYGETGIEAFELEARARNICVATSEKVGRAMSRAAFEGVVRALLQKPSARVAVLFTRSEDARELLAATQRLNASFTWVASDGWGALESVVAGSERAAEGAITIELASYPISDFASYFQSLDPWNNSRNPWFREFWEERFHCSFRQRDCAAHSLRAVPFEQESKIMFVVNAVYAMAHALHNMHRALCPNTTHLCDAMRPVNGRRLYKDFVLNVKFDAPFRPADTDDEVRFDRFGDGIGRYNIFTYLRAGSGRYRYQKVGYWAEGLTLDTSFIPWASPSAGPLPASRCSEPCLQNEVKSVQPGEVCCWLCIPCQPYEYRLDEFTCADCGLGYWPNASLTGCFELPQEYIRWGDAWAVGPVTIACLGALATLFVLGVFVRHNATPVVKASGRELCYILLGGVFLCYCMTFVFIAKPSTAVCTLRRLGLGTAFSVCYSALLTKTNRIARIFGGAREGAQRPRFISPASQVAICLALISGQLLIVAAWLVVEAPGTGKETAPERREVVTLRCNHRDASMLGSLAYNVLLIALCTLYAFKTRKCPENFNEAKFIGFTMYTTCIIWLAFLPIFYVTSSDYRVQTTTMCVSVSLSGSVVLGCLFAPKLHIILFQPQKNVVSHRAPTSRFGSAAPRASANLGQGSGSQFVPTVCNGREVVDSTTSSL
notes: metabotropic glutamate receptor 2 (mGluR2), control of the SiMPull photobleaching analysis; also called known dimeric GPCR mGluR2; source: HEK293, transfected, in lysate
stoichiometry N [2]: 2
